According to IntAct's records for PubMed 36931259:

B1: Kinesin light chain 3 (Homo sapiens), Q6P597 (parent)
chain: MSVQVAAPGSAGLGPERLSPEELVRQTRQVVQGLEALRAEHHGLAGHLAEALAGQGPAAGLEMLEEKQQVVSHSLEAIELGLGEAQVLLALSAHVGALEAEKQRLRSQARRLAQENVWLREELEETQRRLRASEESVAQLEEEKRHLEFLGQLRQYDPPAESQQSESPPRRDSLASLFPSEEEERKGPEAAGAAAAQQGGYEIPARLRTLHNLVIQYAGQGRYEVAVPLCRQALEDLERSSGHCHPDVATMLNILALVYRDQNKYKEATDLLHDALQIREQTLGPEHPAVAATLNNLAVLYGKRGRYREAEPLCQRALEIREKVLGADHPDVAKQLNNLALLCQNQGKFEDVERHYARALSIYEALGGPHDPNVAKTKNNLASAYLKQNKYQQAEELYKEILHKEDLPAPLGAPNTGTAGDAEQALRRSSSLSKIRESIRRGSEKLVSRLRGEAAAGAAGMKRAMSLNTLNVDAPRAPGTQFPSWHLDKAPRTLSASTQDLSPH
partner: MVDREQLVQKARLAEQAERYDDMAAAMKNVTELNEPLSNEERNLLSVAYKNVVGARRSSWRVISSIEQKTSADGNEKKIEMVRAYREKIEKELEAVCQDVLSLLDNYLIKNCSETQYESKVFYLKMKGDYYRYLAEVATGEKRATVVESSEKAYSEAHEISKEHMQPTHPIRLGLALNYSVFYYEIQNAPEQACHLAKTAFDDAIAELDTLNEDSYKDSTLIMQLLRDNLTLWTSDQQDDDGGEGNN
B2: 14-3-3 protein sigma (Homo sapiens), P31947 (parent)
chain: MERASLIQKAKLAEQAERYEDMAAFMKGAVEKGEELSCEERNLLSVAYKNVVGGQRAAWRVLSSIEQKSNEEGSEEKGPEVREYREKVETELQGVCDTVLGLLDSHLIKEAGDAESRVFYLKMKGDYYRYLAEVATGDDKKRIIDSARSAYQEAMDISKKEMPPTNPIRLGLALNFSVFHYEIANSPEEAISLAKTTFDEAMADLHTLSEDSYKDSTLIMQLLRDNLTLWTADNAGEEGGEAPQEPQS
partner: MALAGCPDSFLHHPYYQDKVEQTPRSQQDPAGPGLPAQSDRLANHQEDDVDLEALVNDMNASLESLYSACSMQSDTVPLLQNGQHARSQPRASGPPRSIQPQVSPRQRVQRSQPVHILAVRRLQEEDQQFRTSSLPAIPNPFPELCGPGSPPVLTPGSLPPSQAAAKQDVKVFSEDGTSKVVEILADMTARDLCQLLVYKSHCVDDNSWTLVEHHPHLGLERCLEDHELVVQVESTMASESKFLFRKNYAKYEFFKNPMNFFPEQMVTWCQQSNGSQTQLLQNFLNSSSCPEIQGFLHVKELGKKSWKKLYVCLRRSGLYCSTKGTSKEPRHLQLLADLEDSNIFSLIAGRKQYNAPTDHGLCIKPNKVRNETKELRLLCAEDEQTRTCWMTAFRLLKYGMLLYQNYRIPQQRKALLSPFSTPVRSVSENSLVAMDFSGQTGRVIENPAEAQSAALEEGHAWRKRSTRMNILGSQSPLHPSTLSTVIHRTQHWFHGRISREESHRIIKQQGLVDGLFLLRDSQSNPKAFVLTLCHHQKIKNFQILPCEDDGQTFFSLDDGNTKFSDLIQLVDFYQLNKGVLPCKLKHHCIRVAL
B3: 14-3-3 protein sigma (Homo sapiens), P31947 (parent)
chain: B2 chain
partner: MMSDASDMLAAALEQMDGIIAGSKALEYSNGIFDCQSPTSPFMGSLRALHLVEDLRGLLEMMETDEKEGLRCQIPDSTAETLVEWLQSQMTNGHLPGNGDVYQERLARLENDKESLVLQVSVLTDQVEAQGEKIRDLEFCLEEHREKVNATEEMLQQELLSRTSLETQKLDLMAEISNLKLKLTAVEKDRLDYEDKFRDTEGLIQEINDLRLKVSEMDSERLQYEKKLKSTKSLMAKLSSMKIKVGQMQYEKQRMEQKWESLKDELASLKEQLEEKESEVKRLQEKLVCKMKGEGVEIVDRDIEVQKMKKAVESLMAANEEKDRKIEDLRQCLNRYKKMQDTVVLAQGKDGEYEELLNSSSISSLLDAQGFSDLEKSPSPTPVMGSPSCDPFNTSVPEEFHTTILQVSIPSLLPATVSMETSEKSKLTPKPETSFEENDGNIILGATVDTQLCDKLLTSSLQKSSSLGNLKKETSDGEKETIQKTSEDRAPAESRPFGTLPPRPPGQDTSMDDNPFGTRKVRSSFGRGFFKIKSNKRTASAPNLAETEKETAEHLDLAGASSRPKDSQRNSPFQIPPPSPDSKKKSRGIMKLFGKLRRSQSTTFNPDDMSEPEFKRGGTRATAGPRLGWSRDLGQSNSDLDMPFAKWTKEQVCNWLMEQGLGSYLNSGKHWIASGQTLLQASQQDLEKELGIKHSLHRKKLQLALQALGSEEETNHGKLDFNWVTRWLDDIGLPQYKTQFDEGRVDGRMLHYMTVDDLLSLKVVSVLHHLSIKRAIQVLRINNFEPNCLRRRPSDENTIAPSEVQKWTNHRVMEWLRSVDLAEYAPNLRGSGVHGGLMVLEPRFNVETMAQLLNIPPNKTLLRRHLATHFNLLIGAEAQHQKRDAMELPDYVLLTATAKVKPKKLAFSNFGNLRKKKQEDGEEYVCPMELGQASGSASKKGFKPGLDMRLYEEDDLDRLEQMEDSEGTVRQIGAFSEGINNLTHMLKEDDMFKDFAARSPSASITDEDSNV
B4: Glutamate receptor-interacting protein 1 (Homo sapiens), Q9Y3R0-3 (parent)
chain: MIAVSFKCRCQILRRLTKDESPYTKSASQTKPPDGALAVRRQSIPEEFKGSTVVELMKKEGTTLGLTVSGGIDKDGKPRVSNLRQGGIAARSDQLDVGDYIKAVNGINLAKFRHDEIISLLKNVGERVVLEVEYELPPVSVQGSSVIFRTVEVTLHKEGNTFGFVIRGGAHDDRNKSRPVVITCVRPGGPADREGTIKPGDRLLSVDGIRLLGTTHAEAMSILKQCGQEAALLIEYDVSVMDSVATASGPLLVEVAKTPGASLGVALTTSMCCNKQVIVIDKIKSASIADRCGALHVGDHILSIDGTSMEYCTLAEATQFLANTTDQVKLEILPHHQTRLALKGPDHAALVSSSFSPTSMSAYSLSSLNMGTLPRSLYSTSPRGTMMRRRLKKKDFKSSLSLASSTVGLAGQVVHTETTEVVLTADPVTGFGIQLQGSVFATETLSSPPLISYIEADSPAERCGVLQIGDRVMAINGIPTEDSTFEEASQLLRDSSITSKVTLEIEFDVAESVIPSSGTFHVKLPKKHNVELGITISSPSSRKPGDPLVISDIKKGSVAHRTGTLELGDKLLAIDNIRLDNCSMEDAVQILQQCEDLVKLKIRKDEDNSDEQESSGAIIYTVELKRYGGPLGITISGTEEPFDPIIISSLTKGGLAERTGAIHIGDRILAINSSSLKGKPLSEAIHLLQMAGETVTLKIKKQTDAQSASSPKKFPISSHLSDLGDVEEDSSPAQKPGKLSDMYPSTVPSVDSAVDSWDGSAIDTSYGTQGTSFQASGYNFNTYDWRSPKQRGSLSPVTKPRSQTYPDVGLSYEDWDRSTASGFAGAADSAETEQEENFWSQALEDLETCGQSGILRELEEKADRRVSLRNMTLLATIMSGSTMSLNHEAPTPRSQLGRQASFQERSSSRPHYSQTTRSNTLPSDVGRKSVTLRKMKQEIKEIMSPTPVELHKVTLYKDSDMEDFGFSVADGLLEKGVYVKNIRPAGPGDLGGLKPYDRLLQVNHVRTRDFDCCLVVPLIAESGNKLDLVISRNPLASQKSIDQQSLPGDWSEQNSAFFQQPSHGGNLETREPTNTL
partner: B1 partner
B5: 14-3-3 protein sigma (Homo sapiens), P31947 (parent)
chain: B2 chain
partner: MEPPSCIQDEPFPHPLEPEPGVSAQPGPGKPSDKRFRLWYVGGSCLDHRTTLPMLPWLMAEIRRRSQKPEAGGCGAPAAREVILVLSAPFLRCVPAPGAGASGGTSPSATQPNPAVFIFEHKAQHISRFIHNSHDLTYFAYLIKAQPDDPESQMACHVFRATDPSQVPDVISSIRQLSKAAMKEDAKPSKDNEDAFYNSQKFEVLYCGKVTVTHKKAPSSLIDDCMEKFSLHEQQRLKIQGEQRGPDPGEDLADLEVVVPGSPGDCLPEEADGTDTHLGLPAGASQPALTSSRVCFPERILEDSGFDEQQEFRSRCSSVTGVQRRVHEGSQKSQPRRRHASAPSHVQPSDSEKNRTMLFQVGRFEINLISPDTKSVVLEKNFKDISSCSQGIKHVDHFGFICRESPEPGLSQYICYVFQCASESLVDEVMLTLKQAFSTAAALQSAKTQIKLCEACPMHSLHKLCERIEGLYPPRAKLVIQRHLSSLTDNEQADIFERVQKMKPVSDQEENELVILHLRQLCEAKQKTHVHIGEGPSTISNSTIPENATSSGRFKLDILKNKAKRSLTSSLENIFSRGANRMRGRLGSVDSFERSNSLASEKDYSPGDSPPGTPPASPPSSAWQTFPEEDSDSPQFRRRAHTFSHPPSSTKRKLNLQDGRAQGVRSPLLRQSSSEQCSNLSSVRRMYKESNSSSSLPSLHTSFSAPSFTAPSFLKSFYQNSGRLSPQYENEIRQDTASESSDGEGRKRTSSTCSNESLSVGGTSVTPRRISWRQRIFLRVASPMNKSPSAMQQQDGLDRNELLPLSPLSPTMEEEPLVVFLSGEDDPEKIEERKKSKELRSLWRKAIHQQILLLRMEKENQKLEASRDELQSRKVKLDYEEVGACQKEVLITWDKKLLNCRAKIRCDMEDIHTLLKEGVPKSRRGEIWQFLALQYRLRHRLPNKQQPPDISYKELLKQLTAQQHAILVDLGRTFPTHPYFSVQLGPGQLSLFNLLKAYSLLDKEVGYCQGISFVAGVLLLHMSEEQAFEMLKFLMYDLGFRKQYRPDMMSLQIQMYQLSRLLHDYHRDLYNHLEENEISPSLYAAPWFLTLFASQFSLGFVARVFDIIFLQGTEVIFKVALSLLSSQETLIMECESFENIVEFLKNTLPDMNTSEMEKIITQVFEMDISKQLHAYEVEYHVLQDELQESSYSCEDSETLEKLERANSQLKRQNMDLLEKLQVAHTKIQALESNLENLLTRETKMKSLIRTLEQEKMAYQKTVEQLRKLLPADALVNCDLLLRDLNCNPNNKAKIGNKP
B6: 14-3-3 protein sigma (Homo sapiens), P31947 (parent)
chain: B2 chain
partner: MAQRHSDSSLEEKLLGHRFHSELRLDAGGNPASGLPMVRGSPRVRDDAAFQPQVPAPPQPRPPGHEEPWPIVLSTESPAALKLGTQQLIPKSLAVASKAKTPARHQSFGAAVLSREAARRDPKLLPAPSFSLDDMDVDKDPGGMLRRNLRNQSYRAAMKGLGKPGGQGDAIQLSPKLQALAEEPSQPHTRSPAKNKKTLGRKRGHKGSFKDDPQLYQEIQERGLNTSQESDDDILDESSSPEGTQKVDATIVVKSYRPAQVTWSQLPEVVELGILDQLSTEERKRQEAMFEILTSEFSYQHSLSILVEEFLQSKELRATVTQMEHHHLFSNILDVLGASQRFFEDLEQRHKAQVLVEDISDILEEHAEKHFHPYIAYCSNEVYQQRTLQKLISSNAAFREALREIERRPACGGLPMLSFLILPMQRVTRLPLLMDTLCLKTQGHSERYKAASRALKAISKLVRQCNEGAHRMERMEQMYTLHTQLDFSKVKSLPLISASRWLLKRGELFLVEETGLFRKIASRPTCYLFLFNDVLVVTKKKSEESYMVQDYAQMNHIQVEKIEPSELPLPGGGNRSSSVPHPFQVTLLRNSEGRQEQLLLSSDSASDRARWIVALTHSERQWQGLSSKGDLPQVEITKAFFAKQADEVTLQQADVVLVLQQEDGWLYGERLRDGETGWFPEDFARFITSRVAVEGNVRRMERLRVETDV

Variants of: B1
Conditions: with 1433g_human YWHAG

| effect of a mutation on the interaction | Variant |
| --- | --- |
| disrupting interaction strength | S431A;S466A;S497A |

Variants of: B2
Conditions: with grb10_human GRB10, Q13322

| effect of a mutation on the interaction | Variant |
| --- | --- |
| decreasing interaction strength | MERASLIQKAKLAEQAERYEDMAAFMKGAVEKGEELSCEERNLLSVAYENVVGGQEAAWRVLSSIEQKSNEEGSEEKGPEVREYREKVETELQGVCDTVLGLLDSHLIKEAGDAESRVFYLKMKGDYYRYLAEVATGDDKKRIIDSARSAYQEAMDISKKEMPPTNPIRLGLALNFSDFHYEIANSPEEAISLAKTTFDEAMADLHTLSEDSYKDSTLIMQLLRDNLTLWTADNAGEEGGEAPQEPQS [K49E;R56E;V178D] |

Variants of: B3
Conditions: with lipb1_human PPFIBP1, Q86W92

| effect of a mutation on the interaction | Variant |
| --- | --- |
| decreasing interaction strength | MERASLIQKAKLAEQAERYEDMAAFMKGAVEKGEELSCEERNLLSVAYENVVGGQEAAWRVLSSIEQKSNEEGSEEKGPEVREYREKVETELQGVCDTVLGLLDSHLIKEAGDAESRVFYLKMKGDYYRYLAEVATGDDKKRIIDSARSAYQEAMDISKKEMPPTNPIRLGLALNFSDFHYEIANSPEEAISLAKTTFDEAMADLHTLSEDSYKDSTLIMQLLRDNLTLWTADNAGEEGGEAPQEPQS [K49E;R56E;V178D] |

Variants of: B4
Conditions: with 1433g_human YWHAG

| effect of a mutation on the interaction | Variant |
| --- | --- |
| disrupting interaction strength | T17A;S43A;S901A;T920A |

Variants of: B5
Conditions: with tbcd4_human TBC1D4, O60343

| effect of a mutation on the interaction | Variant |
| --- | --- |
| decreasing interaction strength | MERASLIQKAKLAEQAERYEDMAAFMKGAVEKGEELSCEERNLLSVAYENVVGGQEAAWRVLSSIEQKSNEEGSEEKGPEVREYREKVETELQGVCDTVLGLLDSHLIKEAGDAESRVFYLKMKGDYYRYLAEVATGDDKKRIIDSARSAYQEAMDISKKEMPPTNPIRLGLALNFSDFHYEIANSPEEAISLAKTTFDEAMADLHTLSEDSYKDSTLIMQLLRDNLTLWTADNAGEEGGEAPQEPQS [K49E;R56E;V178D] |

Variants of: B6
Conditions: with arhgg_human ARHGEF16, Q5VV41

| effect of a mutation on the interaction | Variant |
| --- | --- |
| decreasing interaction strength | MERASLIQKAKLAEQAERYEDMAAFMKGAVEKGEELSCEERNLLSVAYENVVGGQEAAWRVLSSIEQKSNEEGSEEKGPEVREYREKVETELQGVCDTVLGLLDSHLIKEAGDAESRVFYLKMKGDYYRYLAEVATGDDKKRIIDSARSAYQEAMDISKKEMPPTNPIRLGLALNFSDFHYEIANSPEEAISLAKTTFDEAMADLHTLSEDSYKDSTLIMQLLRDNLTLWTADNAGEEGGEAPQEPQS [K49E;R56E;V178D] |
